In PMC11209011 one finds reduction of the interaction against full length CD55 and Kd data, which are given here for 1 substance.

In one experiment the target is Δ2 CD55 IRES GFP. Nature of the experiment: flow cytometry on cells. (In general: A flow cytometer gives signals particle by particle.)
The target in experiment [1] is recombinant Fc-tagged CD55 (UniProt P08174). Nature of the experiment: SPR; Biacore T200, 25°C; CD55-Fc immobilized on a Protein G chip, tetramers or monomers as analyte; 150mM NaCl, 0.05% BSA, 0.05% Tween-20, pH 7,5; KD calculated from kon and koff; biological duplicate.
Sequence of UniProt P08174 (P08174 35-353): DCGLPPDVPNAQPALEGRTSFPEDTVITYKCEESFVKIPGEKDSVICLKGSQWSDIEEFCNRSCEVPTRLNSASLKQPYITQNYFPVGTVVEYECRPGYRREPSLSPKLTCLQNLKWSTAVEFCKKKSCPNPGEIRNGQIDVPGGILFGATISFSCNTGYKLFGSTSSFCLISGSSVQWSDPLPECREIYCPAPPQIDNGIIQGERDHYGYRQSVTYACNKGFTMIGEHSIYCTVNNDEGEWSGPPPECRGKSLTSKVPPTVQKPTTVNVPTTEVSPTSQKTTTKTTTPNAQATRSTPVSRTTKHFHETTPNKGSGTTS

Turning to “HLA-C∗07:01-VRIG tetramer (from UniProt P61769 21-119) (peptide-MHC)”, the reduction of the interaction against full length CD55 with Δ2 CD55 IRES GFP was determined as 50%. In addition, the equilibrium dissociation constant (Kd) in experiment [1] was 1400 nM.

The term Kd denotes the constant that tells how readily two partners part at equilibrium.
